According to IntAct's records for PubMed 12221107:

B1: Low density lipoprotein receptor adapter protein 1 (Homo sapiens), Q5SW96 (parent)
chain: MDALKSAGRALIRSPSLAKQSWGGGGRHRKLPENWTDTRETLLEGMLFSLKYLGMTLVEQPKGEELSAAAIKRIVATAKASGKKLQKVTLKVSPRGIILTDNLTNQLIENVSIYRISYCTADKMHDKVFAYIAQSQHNQSLECHAFLCTKRKMAQAVTLTVAQAFKVAFEFWQVSKEEKEKRDKASQEGGDVLGARQDCTPSLKSLVATGNLLDLEETAKAPLSTVSANTTNMDEVPRPQALSGSSVVWELDDGLDEAFSRLAQSRTNPQVLDTGLTAQDMHYAQCLSPVDWDKPDSSGTEQDDLFSF
B2: AP-2 complex subunit beta (Homo sapiens), P63010 (parent)
chain: MTDSKYFTTNKKGEIFELKAELNNEKKEKRKEAVKKVIAAMTVGKDVSSLFPDVVNCMQTDNLELKKLVYLYLMNYAKSQPDMAIMAVNSFVKDCEDPNPLIRALAVRTMGCIRVDKITEYLCEPLRKCLKDEDPYVRKTAAVCVAKLHDINAQMVEDQGFLDSLRDLIADSNPMVVANAVAALSEISESHPNSNLLDLNPQNINKLLTALNECTEWGQIFILDCLSNYNPKDDREAQSICERVTPRLSHANSAVVLSAVKVLMKFLELLPKDSDYYNMLLKKLAPPLVTLLSGEPEVQYVALRNINLIVQKRPEILKQEIKVFFVKYNDPIYVKLEKLDIMIRLASQANIAQVLAELKEYATEVDVDFVRKAVRAIGRCAIKVEQSAERCVSTLLDLIQTKVNYVVQEAIVVIRDIFRKYPNKYESIIATLCENLDSLDEPDARAAMIWIVGEYAERIDNADELLESFLEGFHDESTQVQLTLLTAIVKLFLKKPSETQELVQQVLSLATQDSDNPDLRDRGYIYWRLLSTDPVTAKEVVLSEKPLISEETDLIEPTLLDELICHIGSLASVYHKPPNAFVEGSHGIHRKHLPIHHGSTDAGDSPVGTTTATNLEQPQVIPSQGDLLGDLLNLDLGPPVNVPQVSSMQMGAVDLLGGGLDSLVGQSFIPSSVPATFAPSPTPAVVSSGLNDLFELSTGIGMAPGGYVAPKAVWLPAVKAKGLEISGTFTHRQGHIYMEMNFTNKALQHMTDFAIQFNKNSFGVIPSTPLAIHTPLMPNQSIDVSLPLNTLGPVMKMEPLNNLQVAVKNNIDVFYFSCLIPLNVLFVEDGKMERQVFLATWKDIPNENELQFQIKECHLNADTVSSKLQNNNVYTIAKRNVEGQDMLYQSLKLTNGIWILAELRIQPGNPNYTLSLKCRAPEVSQYIYQVYDSILKN
partner: B1 chain

Variants of: B1
Conditions: with clh1_bovin CLTC

Q: With D214A;E216A as the variant, how does the “effect of a mutation on the interaction” value read?
A: disrupting interaction strength

Q: With L212A;L213A as the variant, how does the “effect of a mutation on the interaction” value read?
A: disrupting interaction strength

Variants of: B1
Conditions: with ap2b1_human AP2B1, P63010

Q: R266A was tested. Which “effect of a mutation on the interaction” value did it give?
A: disrupting interaction strength

Variants of: B2
Conditions: with arh_human LDLRAP1, Q5SW96

Q: For E902A, which “effect of a mutation on the interaction” value is on record?
A: decreasing interaction strength

Q: Which “effect of a mutation on the interaction” value does the source give for E849A here?
A: disrupting interaction strength
